One may read the stoichiometry N as a count of units in the complex or per binding partner.

Test [1] has as its target wild-type KSHV ORF74 expressed in HEK293T cells (Kaposi's Sarcoma-associated Herpesvirus (HHV-8)) (UniProt Q98146).
Test [2] concerns the target KSHV ORF74 with L169W, L258V and two C-terminal threonines deleted (apo construct) (Kaposi's Sarcoma-associated Herpesvirus (HHV-8)) (UniProt Q98146). Briefly: cryo-EM structure.

For “Gαq subunit (Rluc8-fused, TRUPATH) (from UniProt P50148 1-359) (natural protein)”, the BRET2 (TRUPATH) G protein activation in HEK293T cells, Rluc8-Gαq / Gβ / GFP2-Gγ sensor, dose response to recombinant CXCL1: potency of CXCL1 in test [1] turned out to be 6.7 pEC50.

In test [2], “KSHV ORF74 with L169W, L258V and two C-terminal threonines deleted (apo construct) (from UniProt Q98146 1-340) (receptor)” came in with a stoichiometry N of 2.

Values taken from PMC12462484.
